The values below come from article PMC2917355, “Characterization of a Temperature-Sensitive Vertebrate Clathrin Heavy Chain Mutant as a Tool to Study Clathrin-Dependent Events In Vivo” (PLoS ONE, 2010).

This series concerns the molecule itself. Nature of the series: cross-linking; 1 µM clathrin hub fragment (wild type or TS-mutant) in PBS with 10 mg/l BS3 for 5 min at temperatures from 26 to 47°C; SDS-PAGE with silver stain or anti-His-tag Western blot.

B1: human clathrin heavy chain wild type hub fragment (domain or fragment, UniProt Q00610 1074-1675, looked up)
chain: KFDVNTSAVQVLIEHIGNLDRAYEFAERCNEPAVWSQLAKAQLQKGMVKEAIDSYIKADDPSSYMEVVQAANTSGNWEELVKYLQMARKKARESYVETELIFALAKTNRLAELEEFINGPNNAHIQQVGDRCYDEKMYDAAKLLYNNVSNFGRLASTLVHLGEYQAAVDGARKANSTRTWKEVCFACVDGKEFRLAQMCGLHIVVHADELEELINYYQDRGYFEELITMLEAALGLERAHMGMFTELAILYSKFKPQKMREHLELFWSRVNIPKVLRAAEQAHLWAELVFLYDKYEEYDNAIITMMNHPTDAWKEGQFKDIITKVANVELYYRAIQFYLEFKPLLLNDLLMVLSPRLDHTRAVNYFSKVKQLPLVKPYLRSVQNHNNKSVNESLNNLFITEEDYQALRTSIDAYDNFDNISLAQRLEKHELIEFRRIAAYLFKGNNRWKQSVELCKKDSLYKDAMQYASESKDTELAEELLQWFLQEEKRECFGACLFTCYDLLRPDVVLETAWRHNIMDFAMPYFIQVMKEYLTKVDKLDASESLRKEEEQATETQPIVYGQPQLMLTAGPSVAVPPQAPFGYGYTAPPYGQPQPGFGYSM
notes: Clathrin heavy chain, human, C-terminal 'hub' fragment involved in trimerization; The PCR primers encode KFDVNTS... at the start (after a BamHI site) and ...GFGYSM followed by the stop codon at the end (before a HindIII site); Cloned in pET28a between BamHI and HindIII with its own stop codon, so the His tag is probably N-terminal (surmised); also called clathrin-hub fragment; hub fragment (wild …)
With B1, the binding result is recorded as “binds”.

B2: human clathrin heavy chain TS-hub fragment (E1584K) (domain or fragment, UniProt Q00610 1074-1675, looked up)
chain: KFDVNTSAVQVLIEHIGNLDRAYEFAERCNEPAVWSQLAKAQLQKGMVKEAIDSYIKADDPSSYMEVVQAANTSGNWEELVKYLQMARKKARESYVETELIFALAKTNRLAELEEFINGPNNAHIQQVGDRCYDEKMYDAAKLLYNNVSNFGRLASTLVHLGEYQAAVDGARKANSTRTWKEVCFACVDGKEFRLAQMCGLHIVVHADELEELINYYQDRGYFEELITMLEAALGLERAHMGMFTELAILYSKFKPQKMREHLELFWSRVNIPKVLRAAEQAHLWAELVFLYDKYEEYDNAIITMMNHPTDAWKEGQFKDIITKVANVELYYRAIQFYLEFKPLLLNDLLMVLSPRLDHTRAVNYFSKVKQLPLVKPYLRSVQNHNNKSVNESLNNLFITEEDYQALRTSIDAYDNFDNISLAQRLEKHELIEFRRIAAYLFKGNNRWKQSVELCKKDSLYKDAMQYASESKDTELAEELLQWFLQEEKRECFGACLFTCYDLLRPDVVLKTAWRHNIMDFAMPYFIQVMKEYLTKVDKLDASESLRKEEEQATETQPIVYGQPQLMLTAGPSVAVPPQAPFGYGYTAPPYGQPQPGFGYSM
notes: Clathrin heavy chain, human, C-terminal 'hub' fragment amplified from the TS-clathrin (E1584K) cDNA; The PCR primers encode KFDVNTS... at the start and ...GFGYSM followed by the stop codon at the end; Same construct as m1 but with the temperature-sensitive point mutation E1584K. pET28a, so the His tag is probably N-terminal (surmised); also called clathrin hub fragment TS-mutant; pET28a human …
In the case of B2, the binding result was “binds”.
